Data from patent US20090048168A1 (CASE WESTERN RESERVE UNIVERSITY, published 2009).

What was measured:
YFP-IP3R type 1 = assay: acceptor photobleaching FRET, fixed COS-7 cells expressing YFP-IP3R and CFP-Bcl-2
[1] = biological target: Bcl-2 exogenously expressed in WEHI7.2 cells (UniProt P10415 1-239); assay: cell-based or functional assay
Bcl-2 exogenously expressed in WEHI7.2 cells, sequence (P10415 whole entry): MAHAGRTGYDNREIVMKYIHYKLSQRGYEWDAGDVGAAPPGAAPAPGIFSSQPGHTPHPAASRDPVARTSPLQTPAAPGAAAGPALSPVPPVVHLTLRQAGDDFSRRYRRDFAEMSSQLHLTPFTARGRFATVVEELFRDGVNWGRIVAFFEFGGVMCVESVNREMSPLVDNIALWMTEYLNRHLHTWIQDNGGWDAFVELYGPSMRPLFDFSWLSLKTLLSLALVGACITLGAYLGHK

increase of CFP signal following YFP bleaching (FRET) (YFP-IP3R type 1) [%]	anti-CD3-induced apoptosis in Bcl-2(+) WEHI7.2 cells, fold enhancement [1] [fold]	Molecule
28		CFP-Bcl-2 (from UniProt P10415 1-239)
	2	NVYTEIKCNSLLPLDDIVRV [peptide 2, aa 1389-1408 of IP3R]
